# From paper PMC7305185
# Values joined by “and” are separate entries in the source; they are usually repeats but may differ in a detail not shown here. Equal values may be shown once.
# Target: His32 (UniProt position 32, AAQLPHDYCTT)
# Experiment: NMR
# Details: 20 °C; McIlvaine (phosphate-citrate) buffer with 2 mM DTT; Apo five-phospho 4E-BP2. The folded β-domain is populated at neutral pH and undergoes non-cooperative acid denaturation as pH is lowered.
substance,measurement,value
"Eukaryotic translation initiation factor 4E-binding protein 2 (4E-BP2), five-phospho form (5p-4E-BP2) (Homo sapiens (inferred; species of the construct not explicitly stated))",pKa,6.0 ± 0.2 and 5.9 ± 0.1 and 6.0 ± 0.3
